Laboratory results: PMC3232451 (Nature structural & molecular biology, 2011)
Each block holds one molecule with its values, some of them ahead of it. Where no end group is shown, it is not given here.

Columns and labels:
[1] = biological target: TBL1 wild type (gel filtration and HSQC; limits not stated) (human); experiment: SEC
[2] = biological target: TBL1 wild type (gel filtration and HSQC; limits not stated) (human); experiment: NMR HSQC spectra
TBL1 F26A (human) [3] = experiment: SEC
TBL1 F26A (human) [4] = experiment: NMR HSQC spectra
His6-TBL1(1-90) = biological target: T1, His6-TBL1(1-90) (human, UniProt O60907-2 1-90); experiment: fluorescence polarisation
T1 sequence (looked up): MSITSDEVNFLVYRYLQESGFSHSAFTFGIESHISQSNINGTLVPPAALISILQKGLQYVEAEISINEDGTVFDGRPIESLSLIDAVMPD

[5] = biological target: T2, SMRT(167-207), GST removed (human, UniProt Q9Y618 167-207); experiment: NMR structure
T2 chain (looked up): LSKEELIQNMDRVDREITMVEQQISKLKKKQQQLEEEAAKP

crystal structure = biological target: the molecule itself; experiment: crystal structure

Molecule: TBL1 F26A (domain or fragment)
stoichiometry N (TBL1 F26A (human) [3]): 2
stoichiometry N (TBL1 F26A (human) [4]): 2

B1: BODIPY labeled GPS2(1-52) (peptide, UniProt Q13227 1-52, looked up)
chain: MPALLERPKLSNAMARALHRHIMMERERKRQEEEEVDKMMEQKMKEEQERRK
modifications: also: BODIPY label, position not given here
Kd (His6-TBL1(1-90)): 5.1 µM

Molecule: VQIIYDENRKKAEAAHRILEGLGPQVELPLYNQP (peptide, UniProt Q9Y618 227-260, looked up, also: BODIPY label, position not given here) [BODIPY labeled SMRT(227-260)]
Kd (His6-TBL1(1-90)): 14.7 µM

B2: His6-TBL1(1-71) (domain or fragment, human, UniProt O60907-2 1-71, looked up)
chain: MSITSDEVNFLVYRYLQESGFSHSAFTFGIESHISQSNINGTLVPPAALISILQKGLQYVEAEISINEDGT
stoichiometry N (crystal structure): 4

The remaining lines, values ahead:

stoichiometry N [1]: 4
stoichiometry N [2]: 4
Molecule: TBL1 wild type (gel filtration and HSQC; limits not stated) (domain or fragment)

binding result [5]: binds
Molecule: KKEMEERMSLEETKEQILKLEEKLLALQEEKHQLFLQL (domain or fragment, human, UniProt Q13227 53-90, looked up) [GPS2(53-90)]
